The source of these data is article PMC6545562, “Slx5/Slx8‐dependent ubiquitin hotspots on chromatin contribute to stress tolerance” (The EMBO Journal, 2019).

The experiment addresses T1, 6His-Slx5, recombinant (S. cerevisiae, UniProt P32828 1-619).
T1 construct: Slx5, S. cerevisiae; Host and purification are in the Appendix Supplementary Methods; source: recombinant
T1 sequence (looked up): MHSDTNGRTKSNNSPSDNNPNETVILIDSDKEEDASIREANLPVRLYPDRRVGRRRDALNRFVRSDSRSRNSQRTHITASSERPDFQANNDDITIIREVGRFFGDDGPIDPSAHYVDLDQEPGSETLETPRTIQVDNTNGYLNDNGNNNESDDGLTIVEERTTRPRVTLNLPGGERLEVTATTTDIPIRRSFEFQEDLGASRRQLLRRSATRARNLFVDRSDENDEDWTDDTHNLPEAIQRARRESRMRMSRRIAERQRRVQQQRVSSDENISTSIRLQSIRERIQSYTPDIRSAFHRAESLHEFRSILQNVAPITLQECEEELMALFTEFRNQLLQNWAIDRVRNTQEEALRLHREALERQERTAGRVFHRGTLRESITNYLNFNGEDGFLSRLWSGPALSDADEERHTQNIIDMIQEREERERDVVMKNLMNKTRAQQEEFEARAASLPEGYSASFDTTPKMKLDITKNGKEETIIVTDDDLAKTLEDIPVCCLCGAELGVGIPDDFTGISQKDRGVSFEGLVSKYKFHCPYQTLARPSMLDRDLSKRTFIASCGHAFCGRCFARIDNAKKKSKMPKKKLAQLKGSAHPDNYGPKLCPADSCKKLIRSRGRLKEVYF
Put plainly: pull-down; GST pull-down: recombinant purified GST or GST-Euc1 used to co-precipitate recombinant 6His-Slx5. The settings on record: both partners purified.

B1: GST-Euc1, recombinant (natural protein, S. cerevisiae, UniProt Q04461 1-462, looked up)
chain: MPAREYNYVEGFGGYGSLDDDDSDRDSERRNHDLGQRTITTSPTGVSRHAALNRYMIPGRINPLFRPTDAAQPPIVSTSTSASATEPTNRIGPGRIKETPETNFNAFLIAQLTRMEEQNANLKEEISLMKKEQELFFLENQKKLEKGFKDINKYVEDVSAMKEVFKEVVGIMTGERIRFIDHTGENVTPQEAARVGNPSTSTQAHQSQSRSTNWQEYSMHASILAGDPRIKPEPGLSDFENGEYDGNESDENATTRNLPLNNPDSVSNADDSNNQLDGTGNENDIRNRRGCVGTSYKLNRAIQNVTDAAREYFEGLPGQPSVLSLERRYGSTWRRSAKERTLFTKRMTIIKRIIDIKDDPSKYGLSLPENKISRNQAIKVVENIRLGNNTFKGHHCRLSMSQLYEYFSKKMDKLEDYSLTLKRRGKPRRIFLLEEREARLSLQQPHSIPNSSTGTPEHDQDT
notes: Euc1 (Ymr111c), S. cerevisiae; Host and purification are in the Appendix Supplementary Methods; also called recombinant, non‐SUMOylated Euc1; source: recombinant, purified
As for B1, the binding result is listed as “binds”.
